Reference: the nanobody polyreactivity screen of Harvey et al. (2022)

Assay: yeast display, Sf9 membrane polyspecificity reagent, FACS + sequencing; frameworks hold sequencing errors
Outline: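 Synthetic nanobody libraries on Saccharomyces cerevisiae BJ5465 were galactose-induced for 36–48 hours, stained 1 hour at 4 °C with 10% biotinylated, detergent-solubilized Sf9 membrane reagent and enriched on streptavidin microbeads. FACS then separated cells into low and high (top ~1%) gates by anti-HA (expression) and streptavidin (reagent binding) fluorescence. Genes were colony-PCR amplified, MiSeq 2 × 250 sequenced and CDR-length filtered. A clone's polyreactivity label is that of its gate of origin.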

Sequence | polyreactivity (PSR sort gate)
QVQLVESGGGLVQAGGSLRLSCAASGFTFSENAMGWYRQAPGRERELVADIPRSGGNTHYADSEKGRFTISRDNAKNTVYLQMNSLKPEDTAVYYCAARVQWLGYGYYYWGQGTQVTVSS | high polyreactivity
QVQLVESCGGIVQAGGSLRLRCAASGLIFVANAMGWYRQAPVKESEMVAAISRYGGITYYADSVKGRFTISRDNAKNTVYLEMNSLKPEDTAVYYCAKNLPSNGHYDYWGQGTQVTVSS | low polyreactivity
QVQLVESGGGLVQAGGSLRLSCAASGYIIGGNAMGWYRQAPAKERELVAVISSRGGRTYYADSVKGRFTISRDNAKNTVSLQMNSQKPEDTAVYDCASIRYRGARGSGDKIFYYWGQGTQVTVSS | high polyreactivity
KVQLVESGGGLVQAGGSLRLSCAASGRIFYSNVMGWYRQATGKERELVAAISGRTGGTYYADSVKGRFTISRDNAKNTVYLQMNSLKPEDTAVYYCAARFIYYYGSGPDDYWGQGTQVTVSS | low polyreactivity
QVQLVESGGGLVQARGSLRLSCAASGFIIRWNTKGWYRQAPGKVRELVAAISSRGGSTYYADSVKGRFKISRDNAKNTVYLQMNSRKPEDTAVYYCNAVRGDEYWGLGTQVTVSS | high polyreactivity
QVQLVESGGGLVQAGGSLRLSCAASGIIFTRYAMGWYRQAPGKERELVAAITRNGVSTYYADSVKGRFTISRDNAKNSVYLQMNSLKPEDTAVYYCNTYVLRRYAYGYWGQGTQVTVSS | high polyreactivity
QVPLVESGGGLVQAGGSLRLSCAASGITFYYYTMGWYIQAPGKERELVAGITRGGRRYDADSVKGRFTISRDNAKNPVYLQMNSLKPEDTAVYYCNADDDIQYKGRYNYWGQGTQVTVSS | low polyreactivity
QVQLVESGGGLVQAGGSLRLSCAASGGIFYPNVMGWYRQAPGKEREFVAAITSSSGSTYADSVKGRFTISRDNAKNTVYLQMNSLKPEDTAVYYCAAVENWWGIWVRYDYWGQGTQVTVSS | low polyreactivity
QVQLVESGGGLVQAGGSLRLSCAASGRTFWSNAMGWYRQAPGKEREFVAVISRSGSTTYYADSVKGRYTISRDNAKKTVYLQMISLKPEDTAFYNCAADRVRSYFSRYYSTPLDYYWGQGTQVTVSS | high polyreactivity
QVQLVESGGGLVQAGGSLRLSCAASGFIFYRYAMGWYRQAPGKERELVASITKRGGSTRYADSVKGRFTISRDNAKNTVYLQMNSLKPEDTAVYYCAKVPYSTAFDYWGQGTQVTVSS | high polyreactivity
QVQLVESGGGLVQAGGSLRLSCAASGRTFYFYAMGWYRQAPGKERELVAAITVRGGSTYYADSVKGRFTISRYNAKNTVYLQMNSLKPEDTAVYYCAADPYPYYGAYDYWGQGTQVTVSS | high polyreactivity
QVQLVESGGGLVQAGGSLRLSCAASGRIFFTYAMGWYRQAPGKERELVASITGSGGSTYYADSVKGRFTISRDNAKNTVYLQMNSLKPEDTAVYYCAAALFRRQLYRKFYYWGQGTQVTVSS | low polyreactivity
QVQLVESGGGLVQAGGSLRLSCAASGITFYRYAMGWYRQAPGKERELVAGITRSGGSTYYADSVKGRFTISRDNAKNTVYLQMNSLKPEDTAVYYCAARIYSFRTKGGYGYWGQGTQVTVSS | high polyreactivity
QVQLVESGGGLVQAGGSLRLRCAACGSIFTQYVMGWYRKAPGKERELVAAITWSGGNTYYADSVKGRFTISRDNAKNTVYLQMNSLKPEDTAVYYCAAYKPYSKYNDWGQGTQVTVSS | high polyreactivity
QVQLVESGGGLVQAGGSLRLSCAASGSIFKGYAMGWSRQAPGKERELVASITSSGGSTYYADSVKGRFTISRDNAKNTVYLQMNCLKPEDTAVYYCATDHDSVRVLVSSTSDYDYWGQGTQVTVSS | low polyreactivity
QVQLVESGRGLVQAGGSLRLSCAASGVIFSIYAMGWYRQAPGKERELVAAISTSGGSTYYADSVKGRFTISRDNAKNTVYLQMNRLKPEDTAVYYCNARRGFYWSWRGRYISGDYWGQGTQVTVSS | high polyreactivity
QVQLVESGGGLVQAGGSLRLSCAASGRIFVQYDMGWYRQAPGKERELVAAITGGGGSTYYADSVKGRFTISRDNAKNTVYLQMHSLKPEDTAVYYCAADQDVYDFTGYDYWGQGTQVTVSS | low polyreactivity
